Substitutions are numbered along the chain they refer to.
Tests used:
Test in all cases: SPR, Biacore T200, 25 C; FVII(a) variant captured on anti-Gla Ab 4F6, mAb0842(OA) injected
FVII(a) variant R392A = target: T1, FVII(a) variant R392A (human, UniProt P08709 61-466)
T1 construct: hFVII alanine variant in cell culture supernatant
T1 sequence: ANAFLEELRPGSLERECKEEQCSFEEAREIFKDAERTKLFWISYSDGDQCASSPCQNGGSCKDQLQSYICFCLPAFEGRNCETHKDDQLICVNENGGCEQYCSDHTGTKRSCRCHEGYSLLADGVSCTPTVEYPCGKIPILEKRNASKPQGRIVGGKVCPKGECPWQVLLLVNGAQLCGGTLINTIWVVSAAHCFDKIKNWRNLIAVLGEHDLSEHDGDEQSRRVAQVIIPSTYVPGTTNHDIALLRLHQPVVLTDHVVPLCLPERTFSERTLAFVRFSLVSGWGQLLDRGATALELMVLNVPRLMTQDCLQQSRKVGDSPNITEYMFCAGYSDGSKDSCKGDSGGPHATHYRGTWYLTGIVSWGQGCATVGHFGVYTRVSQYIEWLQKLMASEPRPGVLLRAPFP
Experimental: (§1) The running buffer was prepared by diluting 10-fold the 10×HBS-P buffer (supplied by GE Healthcare) and supplemented with 1 mg/ml BSA and 5 mM CaCl2 to give 10 mM HEPES, 150 mM NaCl, 0.05% v/v Polysorbate 20, pH 7.4, 5 mM CaCl2, 1 mg/ml bovine serum albumin (BSA). […] Regeneration of the chip was achieved using 10 mM HEPES, 150 mM NaCl, 20 mM EDTA, 0.05 v/v Polysorbate 20, pH 7.4. Binding data were analysed according to a 1:1 Kinetic model and steady state analysis using BiaEvaluation 4.1 supplied by the manufacturer (Biacore AB, Uppsala, Sweden). Wherever possible, ka, kd and KD values from 1:1 kinetic fitting model are reported. […] An amino acid residue is considered a hot-spot residue if substitution of that amino acid residue with alanine results in an affinity reduction of ten (10) fold or more relative to the wild type.

FVII(a) variant P251A = target: T2, FVII(a) variant P251A (human, UniProt P08709 61-466)
T2 construct: hFVII alanine variant in cell culture supernatant
T2 sequence: T1 sequence with P251A, A392R
Experimental: as §1

FVII(a) variant E265A = target: T3, FVII(a) variant E265A (human, UniProt P08709 61-466)
T3 construct: hFVII alanine variant in cell culture supernatant
T3 sequence: T1 sequence with E265A, A392R
Experimental: as §1

FVII(a) variant V131A = target: T4, FVII(a) variant V131A (human, UniProt P08709 61-466)
T4 construct: hFVII alanine variant in cell culture supernatant
T4 sequence: T1 sequence with V131A, A392R
Experimental: as §1

FVII(a) variant Y118A = target: T5, FVII(a) variant Y118A (human, UniProt P08709 61-466)
T5 construct: hFVII alanine variant in cell culture supernatant
T5 sequence: T1 sequence with Y118A, A392R
Experimental: as §1

Kd (FVII(a) variant R392A): 43.4 nM
Kd (FVII(a) variant P251A): 0.85 nM
Kd (FVII(a) variant E265A): 0.98 nM
Kd (FVII(a) variant V131A): 5.22 nM
Kd (FVII(a) variant Y118A): 1.48 nM
B1: mAb0842(OA) (antibody, human IgG4 S228P, kappa)
heavy: QVQLQESGPGLVKPSQTLSLTCTVSGYSISSDSAWSWIRQPPGKGLEWIGYIQYSGSTNYNPSLKSRVTISRDTSKNQFSLKLSSVTAADTAVYYCARSVNYYGNSFAVGYWGQGTLVTVSSASTKGPSVFPLAPCSRSTSESTAALGCLVKDYFPEPVTVSWNSGALTSGVHTFPAVLQSSGLYSLSSVVTVPSSSLGTKTYTCNVDHKPSNTKVDKRVESKYGPPCPPCPAPEFLGGPSVFLFPPKPKDTLMISRTPEVTCVVVDVSQEDPEVQFNWYVDGVEVHNAKTKPREEQFNSTYRVVSVLTVLHQDWLNGKEYKCKVSNKGLPSSIEKTISKAKGQPREPQVYTLPPSQEEMTKNQVSLSCAVKGFYPSDIAVEWESNGQPENNYKTTPPVLDSDGSFFLVSRLTVDKSRWQEGNVFSCSVMHEALHNHYTQKSLSLSLGK
light: EIVLTQSPATLSLSPGERATLSCRASQGISDYLHWYQQKPGEAPRLLIKYTSQPATGIPARFSGSGSGTDFTLTISSLEPEDFAVYYCQNGHSFPLTFGQGTKLEIKRTVAAPSVFIFPPSDEQLKSGTASVVCLLNNFYPREAKVQWKVDNALQSGNSQESVTEQDSKDSTYSLSSTLTLSKADYEKHKVYACEVTHQGLSSPVTKSFNRGEC
chain: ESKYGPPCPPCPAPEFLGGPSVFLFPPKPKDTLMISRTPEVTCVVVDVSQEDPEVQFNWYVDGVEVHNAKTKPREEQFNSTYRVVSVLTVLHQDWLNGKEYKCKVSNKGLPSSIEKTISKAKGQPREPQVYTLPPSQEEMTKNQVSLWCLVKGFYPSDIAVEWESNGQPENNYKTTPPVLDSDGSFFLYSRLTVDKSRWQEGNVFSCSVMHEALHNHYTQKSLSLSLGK
notes: also called monovalent humanized 11F2 antibody; one-armed anti-FVII(a) antibody
